Measurements published in patent publication US20240116997A1 (BRIGHT PEAK THERAPEUTICS, published 2024).

Tests used:
Test in all cases: cell-based or functional assay
[1] = target: T1, IL-18 receptor (IL-18Rαβ) on cells (UniProt Q13478 19-541; O95256 20-599, limits assumed)
T1 sequence (looked up) 1: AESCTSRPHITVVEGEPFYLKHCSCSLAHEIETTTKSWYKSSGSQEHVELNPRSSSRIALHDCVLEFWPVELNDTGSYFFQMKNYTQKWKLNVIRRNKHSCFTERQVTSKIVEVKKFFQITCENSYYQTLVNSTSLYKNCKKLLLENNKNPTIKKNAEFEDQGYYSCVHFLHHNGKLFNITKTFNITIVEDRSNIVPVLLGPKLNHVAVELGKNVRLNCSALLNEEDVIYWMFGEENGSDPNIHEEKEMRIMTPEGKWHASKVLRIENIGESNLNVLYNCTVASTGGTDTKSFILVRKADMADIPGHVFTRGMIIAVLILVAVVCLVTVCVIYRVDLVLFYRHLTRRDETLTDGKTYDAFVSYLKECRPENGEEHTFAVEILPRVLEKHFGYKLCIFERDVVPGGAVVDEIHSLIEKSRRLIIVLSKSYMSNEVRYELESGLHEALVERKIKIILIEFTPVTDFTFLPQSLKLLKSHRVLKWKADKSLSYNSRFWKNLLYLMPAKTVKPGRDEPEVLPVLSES
T1 sequence (looked up) 2: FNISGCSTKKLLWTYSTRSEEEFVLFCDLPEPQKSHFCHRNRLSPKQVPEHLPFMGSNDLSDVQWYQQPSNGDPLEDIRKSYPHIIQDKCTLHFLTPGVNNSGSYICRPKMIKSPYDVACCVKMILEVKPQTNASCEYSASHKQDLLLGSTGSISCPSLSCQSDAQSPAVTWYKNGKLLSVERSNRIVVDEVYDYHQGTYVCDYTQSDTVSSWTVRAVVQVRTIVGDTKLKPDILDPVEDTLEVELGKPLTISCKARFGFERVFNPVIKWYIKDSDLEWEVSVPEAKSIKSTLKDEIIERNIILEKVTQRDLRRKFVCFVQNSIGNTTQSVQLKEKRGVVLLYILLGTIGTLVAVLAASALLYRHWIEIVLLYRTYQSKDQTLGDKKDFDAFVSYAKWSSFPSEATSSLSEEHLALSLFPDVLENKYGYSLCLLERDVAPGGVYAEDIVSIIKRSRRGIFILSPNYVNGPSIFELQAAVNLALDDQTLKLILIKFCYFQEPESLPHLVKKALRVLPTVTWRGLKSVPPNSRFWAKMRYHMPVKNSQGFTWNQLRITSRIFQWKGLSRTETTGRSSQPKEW

[2] = target: T1, IL-18 receptor (IL-18Rαβ) on cells; remark: listed apart in the source
[3] = target: T1, IL-18 receptor (IL-18Rαβ) on cells; remark: listed apart in the source
[4] = target: T1, IL-18 receptor (IL-18Rαβ) on cells; remark: listed apart in the source

Row | Binder | Fold potency loss vs C086 [1] [fold] | HEK-blue EC50 [1] [nM] | EC50 (read off the curve), HEK-Blue IL18R reporter [2] [nM] | EC50 (pM), HEK-Blue IL-18R reporter assay [3] [pM] | EC50 (nM), IFNγ induction, NK-92 cells [4] [nM]
1 | C137 (C086-GGGGSGGGGSGGGG-IL-18Rα D3-His6, non-cleavable control; SEQ ID NO: 78) (ligand) YFGKLKSKLSIIRNLNDQVLFIDQGNRPLFEDMTDSDARDNAPRTIFIISMYADSQPRGMAVAISVKCEKISTLSAENKIISFKEMNPPDNIKDTKSDIIFFQRSVPGHDNKMQFESSSYEGYFLAAEKERDLFKLILKKEDELGDRSIMFTVQNEGGGGSGGGGSGGGGSNIVPVLLGPKLNHVAVELGKNVRLNCSALLNEEDVIYWMFGEENGSDPNIHEEKEMRIMTPEGKWHASKVLRIENIGESNLNVLYNCTVASTGGTDTKSFILVRKADHHHHHH | 49 | 2.08 | – | – | –
2 | C172 (C086-LinkerX-IL-18Rα D3-His6; SEQ ID NO: 73) (ligand) YFGKLKSKLSIIRNLNDQVLFIDQGNRPLFEDMTDSDARDNAPRTIFIISMYADSQPRGMAVAISVKCEKISTLSAENKIISFKEMNPPDNIKDTKSDIIFFQRSVPGHDNKMQFESSSYEGYFLAAEKERDLFKLILKKEDELGDRSIMFTVQNESGGPGPAGMKGLPGSNIVPVLLGPKLNHVAVELGKNVRLNCSALLNEEDVIYWMFGEENGSDPNIHEEKEMRIMTPEGKWHASKVLRIENIGESNLNVLYNCTVASTGGTDTKSFILVRKADHHHHHH | 26 | 1.09 | ~0.001 | – | –
3 | C162 (K8E, V11I, C38A, C76A, Q103R, C127A) (ligand) YFGKLESELSIIRNLNDQVLFIDQGNRPLFEDMTDSDARDNAPRTIFIISMYKDSQPRGMAVTISVKCEKISTLSAENKIISFKEMNPPDNIKDTKSDIIFFRRSVPGHDNKMQFESSSYEGYFLAAEKERDLFKLILKKEDELGDRSIMFTVQNED | – | – | – | 2.3 | 0.093
4 | C166 (V11I, C38A, S55T, C76A, C127A) (ligand) YFGKLESKLSIIRNLNDQVLFIDQGNRPLFEDMTDSDARDNAPRTIFIISMYKDTQPRGMAVTISVKCEKISTLSAENKIISFKEMNPPDNIKDTKSDIIFFQRSVPGHDNKMQFESSSYEGYFLAAEKERDLFKLILKKEDELGDRSIMFTVQNED | – | – | – | 4.73 | 0.103
5 | C168 (V11I, C38A, C76A, S105K, C127A) (ligand) YFGKLESKLSIIRNLNDQVLFIDQGNRPLFEDMTDSDARDNAPRTIFIISMYKDSQPRGMAVTISVKCEKISTLSAENKIISFKEMNPPDNIKDTKSDIIFFQRKVPGHDNKMQFESSSYEGYFLAAEKERDLFKLILKKEDELGDRSIMFTVQNED | – | – | – | 7.73 | 1.37
6 | C167 (V11I, C38A, C76A, S105I, C127A) (ligand) YFGKLESKLSIIRNLNDQVLFIDQGNRPLFEDMTDSDARDNAPRTIFIISMYKDSQPRGMAVTISVKCEKISTLSAENKIISFKEMNPPDNIKDTKSDIIFFQRIVPGHDNKMQFESSSYEGYFLAAEKERDLFKLILKKEDELGDRSIMFTVQNED | – | – | – | 5.37 | 0.098
7 | C189 (C086-LinkerX-IL-18Rα D3 without glycosylation sites-His6; SEQ ID NO: 75) (ligand) YFGKLKSKLSIIRNLNDQVLFIDQGNRPLFEDMTDSDARDNAPRTIFIISMYADSQPRGMAVAISVKCEKISTLSAENKIISFKEMNPPDNIKDTKSDIIFFQRSVPGHDNKMQFESSSYEGYFLAAEKERDLFKLILKKEDELGDRSIMFTVQNESGGPGPAGMKGLPGSNIVPVLLGPKLNHVAVELGKNVRLDCSALLNEEDVIYWMFGEEDGSDPNIHEEKEMRIMTPEGKWHASKVLRIENIGESNLNVLYDCTVASTGGTDTKSFILVRKADHHHHHH | 10 | 0.43 | ~0.0004 | – | –
8 | C127 (Propeptide-LinkerX-C086; SEQ ID NO: 69) (ligand) MAAEPVEDNCINFVAMKFIDNTLYFIAEDDENLESDSGGPGPAGMKGLPGSYFGKLKSKLSIIRNLNDQVLFIDQGNRPLFEDMTDSDARDNAPRTIFIISMYADSQPRGMAVAISVKCEKISTLSAENKIISFKEMNPPDNIKDTKSDIIFFQRSVPGHDNKMQFESSSYEGYFLAAEKERDLFKLILKKEDELGDRSIMFTVQNED | 7000 | 295 | – | – | –
9 | C187 (Propeptide-PLGLAG-C086; SEQ ID NO: 72) (ligand) MAAEPVEDNCINFVAMKFIDNTLYFIAEDDENLESDPLGLAGYFGKLKSKLSIIRNLNDQVLFIDQGNRPLFEDMTDSDARDNAPRTIFIISMYADSQPRGMAVAISVKCEKISTLSAENKIISFKEMNPPDNIKDTKSDIIFFQRSVPGHDNKMQFESSSYEGYFLAAEKERDLFKLILKKEDELGDRSIMFTVQNED | 29400 | 1240 | – | – | –

More lines, now with the values ahead:

Row | Fold potency loss vs C086 [1] [fold] | HEK-blue EC50 [1] [nM] | EC50 (read off the curve), HEK-Blue IL18R reporter [2] [nM] | EC50 (pM), HEK-Blue IL-18R reporter assay [3] [pM] | EC50 (nM), IFNγ induction, NK-92 cells [4] [nM] | Binder
10 | 21 | 0.884 | – | – | – | C136 (C086-GGSGG-IL-18Rα D3-His6, non-cleavable control; SEQ ID NO: 77) (ligand) YFGKLKSKLSIIRNLNDQVLFIDQGNRPLFEDMTDSDARDNAPRTIFIISMYADSQPRGMAVAISVKCEKISTLSAENKIISFKEMNPPDNIKDTKSDIIFFQRSVPGHDNKMQFESSSYEGYFLAAEKERDLFKLILKKEDELGDRSIMFTVQNEGGSGGSNIVPVLLGPKLNHVAVELGKNVRLNCSALLNEEDVIYWMFGEENGSDPNIHEEKEMRIMTPEGKWHASKVLRIENIGESNLNVLYNCTVASTGGTDTKSFILVRKADHHHHHH
11 | – | – | – | 3.14 | 0.176 | C164 (V11I, C38A, S55H, C76A, C127A) (ligand) YFGKLESKLSIIRNLNDQVLFIDQGNRPLFEDMTDSDARDNAPRTIFIISMYKDHQPRGMAVTISVKCEKISTLSAENKIISFKEMNPPDNIKDTKSDIIFFQRSVPGHDNKMQFESSSYEGYFLAAEKERDLFKLILKKEDELGDRSIMFTVQNED
12 | – | – | – | 272 | 0.824 | IL-18 polypeptide SEQ ID NO: 34 (E06K, K53A, S55A) (ligand) YFGKLKSKLSVIRNLNDQVLFIDQGNRPLFEDMTDSDCRDNAPRTIFIISMYADAQPRGMAVTISVKCEKISTLSCENKIISFKEMNPPDNIKDTKSDIIFFQRSVPGHDNKMQFESSSYEGYFLACEKERDLFKLILKKEDELGDRSIMFTVQNED
13 | – | – | – | 1.91 | 0.098 | C165 (V11I, C38A, S55R, C76A, C127A) (ligand) YFGKLESKLSIIRNLNDQVLFIDQGNRPLFEDMTDSDARDNAPRTIFIISMYKDRQPRGMAVTISVKCEKISTLSAENKIISFKEMNPPDNIKDTKSDIIFFQRSVPGHDNKMQFESSSYEGYFLAAEKERDLFKLILKKEDELGDRSIMFTVQNED
14 | – | – | – | 1.5 | 0.414 | C163 (V11I, C38A, C76A, Q103K, C127A) (ligand) YFGKLESKLSIIRNLNDQVLFIDQGNRPLFEDMTDSDARDNAPRTIFIISMYKDSQPRGMAVTISVKCEKISTLSAENKIISFKEMNPPDNIKDTKSDIIFFKRSVPGHDNKMQFESSSYEGYFLAAEKERDLFKLILKKEDELGDRSIMFTVQNED
15 | – | 404 | – | – | – | C190 (Propeptide-C086, non-cleavable control; SEQ ID NO: 68) (ligand) MAAEPVEDNCINFVAMKFIDNTLYFIAEDDENLESDYFGKLKSKLSIIRNLNDQVLFIDQGNRPLFEDMTDSDARDNAPRTIFIISMYADSQPRGMAVAISVKCEKISTLSAENKIISFKEMNPPDNIKDTKSDIIFFQRSVPGHDNKMQFESSSYEGYFLAAEKERDLFKLILKKEDELGDRSIMFTVQNED
16 | – | 198 | – | – | – | C190 + MMP9 (ligand) MAAEPVEDNCINFVAMKFIDNTLYFIAEDDENLESDYFGKLKSKLSIIRNLNDQVLFIDQGNRPLFEDMTDSDARDNAPRTIFIISMYADSQPRGMAVAISVKCEKISTLSAENKIISFKEMNPPDNIKDTKSDIIFFQRSVPGHDNKMQFESSSYEGYFLAAEKERDLFKLILKKEDELGDRSIMFTVQNED
17 | 60900 | 2560 | – | – | – | C185 (Propeptide-PLG-C086; SEQ ID NO: 70) (ligand) MAAEPVEDNCINFVAMKFIDNTLYFIAEDDENLESDPLGYFGKLKSKLSIIRNLNDQVLFIDQGNRPLFEDMTDSDARDNAPRTIFIISMYADSQPRGMAVAISVKCEKISTLSAENKIISFKEMNPPDNIKDTKSDIIFFQRSVPGHDNKMQFESSSYEGYFLAAEKERDLFKLILKKEDELGDRSIMFTVQNED
